Data on one sequence can be found in article PMC9230395.

pKd: −log10 of the molar value.

This data set deals with T1, ZBP1 (recombinant Z-DNA-binding protein) (UniProt Q9H171).
T1 sequence: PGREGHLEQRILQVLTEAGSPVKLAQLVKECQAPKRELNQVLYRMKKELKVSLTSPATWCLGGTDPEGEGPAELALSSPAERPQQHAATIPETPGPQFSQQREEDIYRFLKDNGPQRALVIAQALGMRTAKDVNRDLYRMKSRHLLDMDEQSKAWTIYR
Nature of the data set: BLI. As to conditions: 10 mM MgCl2; kon 8.28e3 M-1 s-1, koff 4.68e-6 s-1; strands 1 and 2 circular; BLI: 1x PBS (10 mM phosphate) pH 7.2, 10 mM MgCl2, 0.1% BSA, 0.02% Tween-20, 25 C; EMSA: 10 mM phosphate pH 7.2, 10 mM MgCl2, 0.25 uM DNA, 6% PAGE (cc-91A) …. For orientation: In EMSA bound probe runs differently from free probe, usually more slowly.

Broadly, the pKd is the Kd on a negative log10 scale, so that one unit is a factor of ten. For the sequence “CGTGTGATATAGGTGAACGCGCGTGTGTGTATATGTGTGCGATCGTAGAACTTGTGAACCCTTATACCATGCACGATCGCACATTTCGCACA / GCACACATATACACACACGCGCGTTCACCTATATCACACGTGACTTGTAATTAGTAACTACCAACGTGCGTGTGTGTCAGTCAGCGAAATGTGCGATCGTGCATGGTATAAGGGTTCACAAGTTCTACGATC / TTTTTACCTCACTATACTTACATGTTTTTTGGTAGTTACTAATTACAAGT [Bait-cc-91A (cc-91A + lB50)]”, the negative logarithm of the Kd (pKd) was 9.25.
